The target in this series is GSK-3 fusion protein (kinase substrate, Nonradioactive AKT Kinase Assay Kit, Cell signaling 9840).

B1: BCAM-AKT2-FLAG (cloned from patient S4, expressed in OVCAR8 cells) (protein)
chain: EVRLSVPPLVEVMRGKSVILDYTPTGTHDHYMLEWFLTDRSGARPRLASAEMQGSELQVTMHDTRGRSPPYQLDSQGRLVLAEAQVGDERDYVCVVRAGAAGTAEATARLNVFAKPEATEVSPNKGTLSVMEDSAQEIATCNSRNGNPAPKITWYRNGQRLEVPVEMNPEGYMTSRTVREASGLLSLTSTLYLRLRKDDRDASFHCAAHYSLPEGRHGRLDSPTFHLTLHYPTEHVQFWVGSPSTPAGWVREGDTVQLLCRGDGSPSPEYTLFRLQDEQEEVLNVNLEGYLTLEGVTRGQSGTYGCRVEDYDAADDVQLSKTLELRVAYLDPLELNEGKVLSLPLNSSAVVNCSVHGLPTPALRWTKDSTPLGDGPMLSLSSITFDSNGTYVCEASLPTVPVLSRTQNFTLLVQGSPGLKTAEIEPKADGSWREGDEVTLICSARGHPDPKLSWSQLGGSPAEPIPGRQGWVSSSLTLKVTSALSRDGISCEASNPHGNKRHVFHFGTVSPQTSQAGVAVMAVAVSVGLLLLVVAVFYCVRRKGGPCCRQRREKGAPEEWMRAIQMVANSLKQRAPGEDPMDYKCGSPSDSSTTEEMEVAVSKARAKVTMNDFDYLKLLGKGTFGKVILVREKATGRYYAMKILRKEVIIAKDEVAHTVTESRVLQNTRHPFLTALKYAFQTHDRLCFVMEYANGGELFFHLSRERVFTEERARFYGAEIVSALEYLHSRDVVYRDIKLENLMLDKDGHIKITDFGLCKEGISDGATMKTFCGTPEYLAPEVLEDNDYGRAVDWWGLGVVMYEMMCGRLPFYNQDHERLFELILMEEIRFPRTLSPEAKSLLAGLLKKDPKQRLGGGPSDAKEVMEHRFFLSINWQDVVQKKLLPPFKPQVTSEVDTRYFDDEFTAQSITITPPDRYDSLGLLELDQRTHFPQFSYSASIRE
Turning to B1, the “phosphorylation of GSK-3 (in vitro kinase assay, western blot with anti-phospho-GSK-3)” value is listed as “incubation with immunoprecipitated BCAM-AKT2 led to efficient phosphorylation of GSK-3”.

The values are drawn from patent US20160340743.
